For three molecules, binding result and Kd results are on record in article PMC12732654, “Thermodynamic Profiling Reveals DNA Polymerase Template Binding, Substrate Incorporation, and Exonuclease Function”.

In data set [1] the target is T1, SS_01 (engineered Phi29 DNA polymerase) (bacteriophage Phi29 (engineered; …, UniProt P03680 1-575, M97K;A484E;K512Y).
T1 sequence: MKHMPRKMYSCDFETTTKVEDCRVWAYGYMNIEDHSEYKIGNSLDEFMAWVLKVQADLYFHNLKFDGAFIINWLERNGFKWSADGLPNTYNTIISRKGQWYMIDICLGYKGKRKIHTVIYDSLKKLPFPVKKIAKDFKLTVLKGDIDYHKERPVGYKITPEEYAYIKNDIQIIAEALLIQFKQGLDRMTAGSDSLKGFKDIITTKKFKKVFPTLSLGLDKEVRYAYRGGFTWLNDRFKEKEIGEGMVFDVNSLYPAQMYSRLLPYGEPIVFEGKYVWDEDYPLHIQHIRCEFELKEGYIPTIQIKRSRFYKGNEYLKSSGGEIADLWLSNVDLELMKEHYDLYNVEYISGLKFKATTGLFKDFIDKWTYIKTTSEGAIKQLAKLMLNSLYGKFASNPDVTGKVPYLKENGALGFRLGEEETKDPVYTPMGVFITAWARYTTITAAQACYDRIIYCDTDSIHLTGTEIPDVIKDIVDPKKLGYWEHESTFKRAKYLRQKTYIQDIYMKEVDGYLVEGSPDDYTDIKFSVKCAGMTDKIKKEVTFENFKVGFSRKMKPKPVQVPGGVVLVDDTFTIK
In words: ITC; Ca2+; exothermic, smaller heat than Mg2+; ITC: 1x PBS pH 7.5, 0.01% BSA, 0.05% Tween-20, with no metal, 1 mM MgCl2 or 1 mM CaCl2, 25 C, 5 uM SS_01; EMSA: 20 mM HEPES pH 7.5, 4 mM DTT, 1 mM metal chloride, 30 C 30 min, 100 nM DNA, 10 nM polymerase. The following applies: protein: recombinant; single strand. A general note: ITC needs no label: the signal is the heat of the interaction.

Data set [2] addresses T1, SS_01 (engineered Phi29 DNA polymerase). Put plainly: EMSA; 1 mM Mg2+; ITC: 1x PBS pH 7.5, 0.01% BSA, 0.05% Tween-20, with no metal, 1 mM MgCl2 or 1 mM CaCl2, 25 C, 5 uM SS_01; EMSA: 20 mM HEPES pH 7.5, 4 mM DTT, 1 mM metal chloride, 30 C 30 min, 100 nM DNA, 10 nM polymerase. The following applies: protein: recombinant; hairpin, self-primed template. Background: Mobility shift assays separate free from complexed probe on a gel.

Data set [3] shares this target. Put plainly: ITC; 1 mM Ca2+; ITC: 1x PBS pH 7.5, 0.01% BSA, 0.05% Tween-20, with no metal, 1 mM MgCl2 or 1 mM CaCl2, 25 C, 5 uM SS_01; EMSA: 20 mM HEPES pH 7.5, 4 mM DTT, 1 mM metal chloride, 30 C 30 min, 100 nM DNA, 10 nM polymerase. To be noted: protein: recombinant; 63 bp duplex, 5' overhang 7 nt on the 70-mer template.
The target is the same in data set [4]. In words: ITC; 1 mM Mg2+; 10 uM DNA into 5 uM protein; ITC: 1x PBS pH 7.5, 0.01% BSA, 0.05% Tween-20, with no metal, 1 mM MgCl2 or 1 mM CaCl2, 25 C, 5 uM SS_01; EMSA: 20 mM HEPES pH 7.5, 4 mM DTT, 1 mM metal chloride, 30 C 30 min, 100 nM DNA, 10 nM polymerase. To be noted: protein: recombinant; 63 bp duplex, 5' overhang 7 nt on the 70-mer template.
The target is the same in data set [5]. Put plainly: ITC; no Mg2+; 10 uM DNA into 5 uM protein; ITC: 1x PBS pH 7.5, 0.01% BSA, 0.05% Tween-20, with no metal, 1 mM MgCl2 or 1 mM CaCl2, 25 C, 5 uM SS_01; EMSA: 20 mM HEPES pH 7.5, 4 mM DTT, 1 mM metal chloride, 30 C 30 min, 100 nM DNA, 10 nM polymerase. The following applies: protein: recombinant; 63 bp duplex, 5' overhang 7 nt on the 70-mer template.

For data set [6] the target is unchanged. In words: ITC; 1 mM Mg2+ (Mg2+/Ca2+ comparison set); ITC: 1x PBS pH 7.5, 0.01% BSA, 0.05% Tween-20, with no metal, 1 mM MgCl2 or 1 mM CaCl2, 25 C, 5 uM SS_01; EMSA: 20 mM HEPES pH 7.5, 4 mM DTT, 1 mM metal chloride, 30 C 30 min, 100 nM DNA, 10 nM polymerase. The following applies: protein: recombinant; 63 bp duplex, 5' overhang 7 nt on the 70-mer template.

Regarding TCCTAACGAGATTAGTTTTGCTGTT (ssDNA) [unmodified oligonucleotide (non-PS)], the binding result in data set [1] was “binds”.

B1: Seq99A hairpin primed template (structured_DNA)
DNA: TTTTTGCGCTCGAGATCTCCGTAAGGAGATCTCGAGCGCGGGACTACTACTGGGATCATCATAGCCACCTCAGCTGCACGTAAGTGCAGCTGAGGTGGC
With B1, in data set [2], the binding result is given as “binds”.

B2: 63/70-mer primed template (dsDNA)
DNA 1: TACGCAGCGTACATGCTCGTGACTGGGATAACCGTGCCGTTTGCCGACTTTCGCAGCCGTCCA
DNA 2: AAACCCTTGGACGGCTGCGAAAGTCGGCAAACGGCACGGTTATCCCAGTCACGAGCATGTACGCTGCGTA
modifications: three consecutive phosphorothioates at 3' terminus of 63-mer
A word on the Kd: it is the constant that tells how readily two partners part at equilibrium. In the case of B2, the Kd was 317 ± 75.2 nM in data set [3], 243 ± 80.5 nM in data set [4], 129 ± 9.46 nM in data set [5] and 239 ± 68.2 nM in data set [6].
